The target in assay [1] is T1, human CD137 over-expressed on HuT78 cells (HuT78/CD137) (human, UniProt Q07011 24-255).
T1 construct: also called Hut78/huCD137; native CD137
Briefly: flow cytometry on live HuT78/CD137 cells. On the procedure:
To evaluate the binding activity of anti-CD137 antibody to bind native CD137 on live cells, HuT78 cells were engineered to over-express human CD137. Live HuT78/CD137 cells were seeded in a 96-well plate, and were incubated with a series of dilutions of anti-CD137 antibody. Goat anti-Human IgG was used as secondary antibody to detect antibody binding to the cell surface. EC₅₀ values for dose-dependent binding to human native CD137 were determined by fitting the dose-response data to the four-parameter logistic model with GraphPad Prism™. The humanized VHHs retained sub-nanomolar binding affinity to native CD137.
In general terms: A flow cytometer gives signals particle by particle.

The target of assay [2] is T2, human CD137 (recombinant antigen of the ELISA of Example 2 and the SPR of Example 3; construct not stated) (human, UniProt Q07011 24-186, limits assumed).
T2 construct: also called huCD137
Put plainly: SPR, antibody captured on anti-human Fc surface, Test 2. The source says: (§1) For affinity determination, antibodies were captured by anti-human Fe surface, and used in the affinity—assay based on surface plasmon resonance (SPR) technology.

In assay [3] the target is T2, human CD137 (recombinant antigen of the …). Put plainly: SPR. Background: SPR reads the build-up and loss of mass on a sensor chip optically.
Assay [4] has the same target. Put plainly: SPR. This is another data set of the same source.
For assay [5] the target is unchanged. Briefly: SPR, antibody captured on anti-human Fc surface, Test 1.
Description: as §1

T1 sequence (Q07011 24-255 limits assumed): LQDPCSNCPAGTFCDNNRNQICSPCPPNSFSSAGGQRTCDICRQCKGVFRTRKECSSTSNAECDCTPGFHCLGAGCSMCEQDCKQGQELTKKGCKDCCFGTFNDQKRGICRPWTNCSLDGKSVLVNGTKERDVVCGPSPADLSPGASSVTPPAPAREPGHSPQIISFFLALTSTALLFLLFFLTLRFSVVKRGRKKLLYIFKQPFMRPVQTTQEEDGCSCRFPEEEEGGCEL

B1: BGA-3544 (humanized VHH, Fc-VHH format) (VHH)
chain: EPKSSDKTHTCPPCPAPPAAGPSVFLFPPKPKDTLMISRTPEVTCVVVDVSHEDPEVKFNWYVDGVEVHNAKTKPREEQYNSTYRVVSVLTVLHQDWLNGKEYKCKVSNKALAAPIEKTISKAKGQPREPQVYTLPPSREEMTKNQVSLTCLVKGFYPSDIAVEWESNGQPENNYKTTPPVLDSDGSFFLYSKLTVDKSRWQQGNVFSCSVMHEALHNHYTQKSLSLSPGKGGGGSEVQLVESGGGLVQPGGSLRLSCAASGRTFDNYAVGWFRQAPGKEREYVGTYWSGYAHYGDFEKGRFTISRDNSKNTVYLQMNNLRPEDTAVYYCAISLKYPMATVTPDYQGQGTQVTVSS
Turning to B1, in assay [1], the EC50 turned out to be 0.85 nM. For the same molecule, in assay [2], the equilibrium dissociation constant (Kd) was 17.6 nM, the koff amounted to 0.000999 s⁻¹ and the kon came out at 56900 M⁻¹ s⁻¹.

B2: BGA-6582-G49S (VHH)
chain: EPKSSDKTHTCPPCPAPPAAGPSVFLFPPKPKDTLMISRTPEVTCVVVDVSHEDPEVKFNWYVDGVEVHNAKTKPREEQYNSTYRVVSVLTVLHQDWLNGKEYKCKVSNKALAAPIEKTISKAKGQPREPQVYTLPPSREEMTKNQVSLTCLVKGFYPSDIAVEWESNGQPENNYKTTPPVLDSDGSFFLYSKLTVDKSRWQQGNVFSCSVMHEALHNHYTQKSLSLSPGKGGGGSEVQLLESGGGLVQPGGSLRLSCAASGRTFDNYAVGWFRQAPGKERQYVSTYWSGYAHYGDFENNRFTISRDNSKNTVYLQMNSLRAEDTAVYYCAISLKYPMATVTPDYQGQGTLVTVSS
With B2, in assay [3], the binding result is on record as “no binding”.

B3: BGA-3726 (BGA-6582-Q46E) (VHH)
chain: EPKSSDKTHTCPPCPAPPAAGPSVFLFPPKPKDTLMISRTPEVTCVVVDVSHEDPEVKFNWYVDGVEVHNAKTKPREEQYNSTYRVVSVLTVLHQDWLNGKEYKCKVSNKALAAPIEKTISKAKGQPREPQVYTLPPSREEMTKNQVSLTCLVKGFYPSDIAVEWESNGQPENNYKTTPPVLDSDGSFFLYSKLTVDKSRWQQGNVFSCSVMHEALHNHYTQKSLSLSPGKGGGGSEVQLLESGGGLVQPGGSLRLSCAASGRTFDNYAVGWFRQAPGKEREYVGTYWSGYAHYGDFENNRFTISRDNSKNTVYLQMNSLRAEDTAVYYCAISLKYPMATVTPDYQGQGTLVTVSS
In the case of B3, in assay [3], the Kd was 14.3 nM, the koff was determined as 0.000432 s⁻¹ and the on-rate (kon) amounted to 30200 M⁻¹ s⁻¹.

B4: BGA-6582-V78L (VHH)
chain: EPKSSDKTHTCPPCPAPPAAGPSVFLFPPKPKDTLMISRTPEVTCVVVDVSHEDPEVKFNWYVDGVEVHNAKTKPREEQYNSTYRVVSVLTVLHQDWLNGKEYKCKVSNKALAAPIEKTISKAKGQPREPQVYTLPPSREEMTKNQVSLTCLVKGFYPSDIAVEWESNGQPENNYKTTPPVLDSDGSFFLYSKLTVDKSRWQQGNVFSCSVMHEALHNHYTQKSLSLSPGKGGGGSEVQLLESGGGLVQPGGSLRLSCAASGRTFDNYAVGWFRQAPGKERQYVGTYWSGYAHYGDFENNRFTISRDNSKNTLYLQMNSLRAEDTAVYYCAISLKYPMATVTPDYQGQGTLVTVSS
On to B4, for which, in assay [3], the Kd was found to be 13.6 nM, the koff was found to be 0.000593 s⁻¹ and the kon was 43500 M⁻¹ s⁻¹.

B5: BGA-7031 (humanized VHH, Fc-VHH format) (VHH)
chain: EPKSSDKTHTCPPCPAPPAAGPSVFLFPPKPKDTLMISRTPEVTCVVVDVSHEDPEVKFNWYVDGVEVHNAKTKPREEQYNSTYRVVSVLTVLHQDWLNGKEYKCKVSNKALAAPIEKTISKAKGQPREPQVYTLPPSREEMTKNQVSLTCLVKGFYPSDIAVEWESNGQPENNYKTTPPVLDSDGSFFLYSKLTVDKSRWQQGNVFSCSVMHEALHNHYTQKSLSLSPGKGGGGSEVQLVESGGGLVQPGGSLRLSCAASGRTFDNYAVGWFRQAPGKEREYVGTYWSGYAHYGDFENNRFTISRDNSKNTVYLQMNNLRPEDTAVYYCAISLKYPMATVTPDYQGQGTQVTVSS
Molecule B5 had an EC50 in assay [1] of 0.88 nM. For the same molecule, in assay [2], the Kd was determined as 11.7 nM, the koff worked out at 0.000719 s⁻¹ and the kon came to 61600 M⁻¹ s⁻¹.

B6: BGA-6582-F37V (VHH)
chain: EPKSSDKTHTCPPCPAPPAAGPSVFLFPPKPKDTLMISRTPEVTCVVVDVSHEDPEVKFNWYVDGVEVHNAKTKPREEQYNSTYRVVSVLTVLHQDWLNGKEYKCKVSNKALAAPIEKTISKAKGQPREPQVYTLPPSREEMTKNQVSLTCLVKGFYPSDIAVEWESNGQPENNYKTTPPVLDSDGSFFLYSKLTVDKSRWQQGNVFSCSVMHEALHNHYTQKSLSLSPGKGGGGSEVQLLESGGGLVQPGGSLRLSCAASGRTFDNYAVGWVRQAPGKERQYVGTYWSGYAHYGDFENNRFTISRDNSKNTVYLQMNSLRAEDTAVYYCAISLKYPMATVTPDYQGQGTLVTVSS
As to B6, the binding result in assay [3] is “no binding”.

B7: BGA-6582-I94K (VHH)
chain: EPKSSDKTHTCPPCPAPPAAGPSVFLFPPKPKDTLMISRTPEVTCVVVDVSHEDPEVKFNWYVDGVEVHNAKTKPREEQYNSTYRVVSVLTVLHQDWLNGKEYKCKVSNKALAAPIEKTISKAKGQPREPQVYTLPPSREEMTKNQVSLTCLVKGFYPSDIAVEWESNGQPENNYKTTPPVLDSDGSFFLYSKLTVDKSRWQQGNVFSCSVMHEALHNHYTQKSLSLSPGKGGGGSEVQLLESGGGLVQPGGSLRLSCAASGRTFDNYAVGWFRQAPGKERQYVGTYWSGYAHYGDFENNRFTISRDNSKNTVYLQMNSLRAEDTAVYYCAKSLKYPMATVTPDYQGQGTLVTVSS
Turning to B7, in assay [3], the binding result is listed as “no binding”.

B8: BGA-6582-R45L (VHH)
chain: EPKSSDKTHTCPPCPAPPAAGPSVFLFPPKPKDTLMISRTPEVTCVVVDVSHEDPEVKFNWYVDGVEVHNAKTKPREEQYNSTYRVVSVLTVLHQDWLNGKEYKCKVSNKALAAPIEKTISKAKGQPREPQVYTLPPSREEMTKNQVSLTCLVKGFYPSDIAVEWESNGQPENNYKTTPPVLDSDGSFFLYSKLTVDKSRWQQGNVFSCSVMHEALHNHYTQKSLSLSPGKGGGGSEVQLLESGGGLVQPGGSLRLSCAASGRTFDNYAVGWFRQAPGKELQYVGTYWSGYAHYGDFENNRFTISRDNSKNTVYLQMNSLRAEDTAVYYCAISLKYPMATVTPDYQGQGTLVTVSS
As for B8, in assay [3], the Kd was 14.8 nM, the koff was 0.000413 s⁻¹ and the kon was found to be 27800 M⁻¹ s⁻¹.

B9: BGA-6582-Y47W (VHH)
chain: EPKSSDKTHTCPPCPAPPAAGPSVFLFPPKPKDTLMISRTPEVTCVVVDVSHEDPEVKFNWYVDGVEVHNAKTKPREEQYNSTYRVVSVLTVLHQDWLNGKEYKCKVSNKALAAPIEKTISKAKGQPREPQVYTLPPSREEMTKNQVSLTCLVKGFYPSDIAVEWESNGQPENNYKTTPPVLDSDGSFFLYSKLTVDKSRWQQGNVFSCSVMHEALHNHYTQKSLSLSPGKGGGGSEVQLLESGGGLVQPGGSLRLSCAASGRTFDNYAVGWFRQAPGKERQWVGTYWSGYAHYGDFENNRFTISRDNSKNTVYLQMNSLRAEDTAVYYCAISLKYPMATVTPDYQGQGTLVTVSS
For B9, in assay [3], the binding result was “no binding”.

B10: BGA-6582-E44G (VHH)
chain: EPKSSDKTHTCPPCPAPPAAGPSVFLFPPKPKDTLMISRTPEVTCVVVDVSHEDPEVKFNWYVDGVEVHNAKTKPREEQYNSTYRVVSVLTVLHQDWLNGKEYKCKVSNKALAAPIEKTISKAKGQPREPQVYTLPPSREEMTKNQVSLTCLVKGFYPSDIAVEWESNGQPENNYKTTPPVLDSDGSFFLYSKLTVDKSRWQQGNVFSCSVMHEALHNHYTQKSLSLSPGKGGGGSEVQLLESGGGLVQPGGSLRLSCAASGRTFDNYAVGWFRQAPGKGRQYVGTYWSGYAHYGDFENNRFTISRDNSKNTVYLQMNSLRAEDTAVYYCAISLKYPMATVTPDYQGQGTLVTVSS
As for B10, in assay [3], the Kd was 9.16 nM, the off-rate constant (koff) amounted to 0.000242 s⁻¹ and the kon stood at 26400 M⁻¹ s⁻¹.

B11: BGA-6582 (humanized VHH from BGA-9612, Fc-VHH format) (VHH)
chain: EPKSSDKTHTCPPCPAPPAAGPSVFLFPPKPKDTLMISRTPEVTCVVVDVSHEDPEVKFNWYVDGVEVHNAKTKPREEQYNSTYRVVSVLTVLHQDWLNGKEYKCKVSNKALAAPIEKTISKAKGQPREPQVYTLPPSREEMTKNQVSLTCLVKGFYPSDIAVEWESNGQPENNYKTTPPVLDSDGSFFLYSKLTVDKSRWQQGNVFSCSVMHEALHNHYTQKSLSLSPGKGGGGSEVQLLESGGGLVQPGGSLRLSCAASGRTFDNYAVGWFRQAPGKERQYVGTYWSGYAHYGDFENNRFTISRDNSKNTVYLQMNSLRAEDTAVYYCAISLKYPMATVTPDYQGQGTLVTVSS
B11: the Kd amounted to 13.6 nM in assay [3], 27.7 nM in assay [4] and 27.7 nM in assay [5]. Moreover, the koff in assay [3] was 0.000593 s⁻¹; in assay [4] it was 0.000588 s⁻¹; in assay [5], 0.000588 s⁻¹. For the same molecule, the kon in assay [3] is 43500 M⁻¹ s⁻¹; in assay [4], 21200 M⁻¹ s⁻¹; in assay [5], 21200 M⁻¹ s⁻¹.

As usually defined, the EC50 is the concentration giving half of the maximal effect. A low value points to higher potency in that assay. In general, Kd refers to the equilibrium constant for the complex coming apart. As a reminder, the koff is the first-order rate constant of dissociation. The kon is the second-order rate constant of association.

The record behind these values is US20250154279A1 (BEIGENE, published 2025).
